Measurements as given in patent US20120021972A1 (CADILA HEALTHCARE, published 2012).
Starred links: 1 amine or outer side, 2 acyl side, 3 side chain; linkers in the order of their positions; H or OH if unused. Non-standard residues stand in square brackets, D forms with d. No end group written: not given here. *: point of attachment. AMCB = 2-amino-5-(4-chloro-2-methylphenyl)pentanoic acid, Cc1cc(Cl)ccc1CCC[C@H](N[*:1])C(=O)[*:2]; ACPP = 2-amino-5-(3-chlorophenyl)pentanoic acid, O=C([C@H](CCCc1cccc(Cl)c1)N[*:1])[*:2]; Bip(2'-Et-4'-OMe) = CCc1cc(OC)ccc1-c1ccc(C[C@H](N)C(=O)O)cc1; Leu(5,5,5,5',5',5'-F6) = N[C@@H](CC(C(F)(F)F)C(F)(F)F)C(=O)O; Nva(5-(3,5-Me2Ph)) = Cc1cc(C)cc(CCC[C@H](N)C(=O)O)c1; 2F‑APPA = 2-amino-5-(2-fluorophenyl)pentanoic acid; αMePhe(2-F) = C[C@](N)(Cc1ccccc1F)C(=O)O; hhPhe = N[C@@H](CCCc1ccccc1)C(=O)O; aThr = C[C@H](O)[C@H](N)C(=O)O; CNB = not defined here; Ac3c = NC1(C(=O)O)CC1; Aib = CC(C)(N)C(=O)O; Moc = COC(=O)*

B1: Seq. ID. No. 19: H-Aib-QGTFTSD-Bip(OMe)-(ACPP) (peptide)
peptide: H[Aib]QGTFTSD[Bip(2'-Et-4'-OMe)][ACPP]
B2: Seq. ID. No. 204: H-Aib-(CNB)-G-T(allo)-(α-Me-2F-Phe)-T(allo)-SD-(CH2)-Bip(OMe)-(CH2)-(2F-APPA) (peptide)
peptide: H[Aib][CNB]G[aThr][αMePhe(2-F)][aThr]SD[Bip(2'-Et-4'-OMe)][2F‑APPA]
modifications: reading uncertain; also: reduced (CH2) bonds Z9-Z10 and Z10-Z11
B3: Seq. ID. No. 202: H-Aib-(CNB)-G-T(allo)-(α-Me-2F-Phe)-T(allo)-SD-(CH2)-Bip(OMe)-(CH2)-(APPA) (peptide)
peptide: H[Aib][CNB]G[aThr][αMePhe(2-F)][aThr]SD[Bip(2'-Et-4'-OMe)][hhPhe]
modifications: reading uncertain; also: reduced (CH2) bonds between 9-10 and 10-11
B4: Seq. ID. No. 237: H-Aib-(Hfl)-GT-(α-Me-2F-Phe)-TSD-Bip(OMe)-(AMCB) (peptide)
peptide: H[Aib][Leu(5,5,5,5',5',5'-F6)]GT[αMePhe(2-F)]TSD[Bip(2'-Et-4'-OMe)][AMCB]
B5: Seq. ID. No. 228: H-Aib-(Hfl)-G-T(allo)-(α-Me-2F-Phe)-T(allo)-SD-Bip(OMe)-(APPA) (peptide)
peptide: H[Aib][Leu(5,5,5,5',5',5'-F6)]G[aThr][αMePhe(2-F)][aThr]SD[Bip(2'-Et-4'-OMe)][hhPhe]
B6: Seq. ID. No. 205: CH3CO-H-Aib-(CNB)-GT-(α-Me-2F-Phe)-TSD-Bip(OMe)-(APPA) (peptide)
peptide: Ac-H[Aib][CNB]GT[αMePhe(2-F)]TSD[Bip(2'-Et-4'-OMe)][hhPhe]
modifications: reading uncertain
B7: Seq. ID. No. 178: H-Aib-(CNB)-G-T(allo)-(α-Me-2F-Phe)-T(allo)-SD-(C═S)-Bip(OMe)-(C═S)-(APPA) (peptide)
peptide: H[Aib][CNB]G[aThr][αMePhe(2-F)][aThr]SD[Bip(2'-Et-4'-OMe)][hhPhe]
modifications: reading uncertain; also: thioamide bonds between residues 9-10 and 10-11
B8: Seq. ID. No. 168: H-Aib-(CNB)-G-T(allo)-(α-Me-2F-Phe)-T(allo)-SD-Bip(OMe)-(C═S)-(2F-APPA) (peptide)
peptide: H[Aib][CNB]G[aThr][αMePhe(2-F)][aThr]SD[Bip(2'-Et-4'-OMe)][2F‑APPA]
modifications: reading uncertain; also: thioamide bond between residues 10 and 11
B9: Seq. ID. No. 194: CH3OCO-H-Aib-QGT-(α-Me-2F-Phe)-TSD-(CH2)-Bip(OMe)-(CH2)-(APPA) (peptide)
peptide: Moc-H[Aib]QGT[αMePhe(2-F)]TSD[Bip(2'-Et-4'-OMe)][hhPhe]
modifications: also: reduced (CH2) bonds between 9-10 and 10-11
B10: Seq. ID. No. 29: H-Aib-(CNB)-GTFTSD-Bip(OMe)-(APPA) (peptide)
peptide: H[Aib][CNB]GTFTSD[Bip(2'-Et-4'-OMe)][hhPhe]
modifications: reading uncertain
B11: Seq. ID. No. 206: CH3OCO-H-Aib-(CNB)-GT-(α-Me-2F-Phe)-TSD-Bip(OMe)-(APPA) (peptide)
peptide: Moc-H[Aib][CNB]GT[αMePhe(2-F)]TSD[Bip(2'-Et-4'-OMe)][hhPhe]
modifications: reading uncertain
B12: Seq. ID. No. 45: HSQGTFTSD-Bip(OMe)-(2F-APPA) (peptide)
peptide: HSQGTFTSD[Bip(2'-Et-4'-OMe)][2F‑APPA]
B13: Seq. ID. No. 22: H-(ACP)-QGTFTSD-Bip(OMe)-(ADMP) (peptide)
peptide: H[Ac3c]QGTFTSD[Bip(2'-Et-4'-OMe)][Nva(5-(3,5-Me2Ph))]
B14: Seq. ID. No. 207: CH3CO-H-Aib-(CNB)-GT-(α-Me-2F-Phe)-TSD-Bip(OMe)-(2F-APPA) (peptide)
peptide: Ac-H[Aib][CNB]GT[αMePhe(2-F)]TSD[Bip(2'-Et-4'-OMe)][2F‑APPA]
modifications: reading uncertain
B15: Seq. ID. No. 30: H-Aib-(CNB)-GTFTSD-Bip(OMe)-(ADMP) (peptide)
peptide: H[Aib][CNB]GTFTSD[Bip(2'-Et-4'-OMe)][Nva(5-(3,5-Me2Ph))]
modifications: reading uncertain
B16: Seq. ID. No. 40: H-Aib-QGT-(α-Me-2F-Phe)-TSD-Bip(OMe)-(AMCB) (peptide)
peptide: H[Aib]QGT[αMePhe(2-F)]TSD[Bip(2'-Et-4'-OMe)][AMCB]
B17: Seq. ID. No. 200: CH3OCO-H-Aib-QG-T(allo)-(α-Me-2F-Phe)-T(allo)-SD-(CH2)-Bip(OMe)-(CH2)-(2F-APPA) (peptide)
peptide: Moc-H[Aib]QG[aThr][αMePhe(2-F)][aThr]SD[Bip(2'-Et-4'-OMe)][2F‑APPA]
modifications: also: reduced (CH2) bonds between 9-10 and 10-11

Columns and labels:
human GLP-1 receptor = human GLP-1 receptor (human, UniProt P43220 24-463); assay: cell-based or functional assay
human glucagon receptor = human glucagon receptor (human, UniProt P47871 26-477); assay: cell-based or functional assay

Sequence of human GLP-1 receptor (P43220 24-463): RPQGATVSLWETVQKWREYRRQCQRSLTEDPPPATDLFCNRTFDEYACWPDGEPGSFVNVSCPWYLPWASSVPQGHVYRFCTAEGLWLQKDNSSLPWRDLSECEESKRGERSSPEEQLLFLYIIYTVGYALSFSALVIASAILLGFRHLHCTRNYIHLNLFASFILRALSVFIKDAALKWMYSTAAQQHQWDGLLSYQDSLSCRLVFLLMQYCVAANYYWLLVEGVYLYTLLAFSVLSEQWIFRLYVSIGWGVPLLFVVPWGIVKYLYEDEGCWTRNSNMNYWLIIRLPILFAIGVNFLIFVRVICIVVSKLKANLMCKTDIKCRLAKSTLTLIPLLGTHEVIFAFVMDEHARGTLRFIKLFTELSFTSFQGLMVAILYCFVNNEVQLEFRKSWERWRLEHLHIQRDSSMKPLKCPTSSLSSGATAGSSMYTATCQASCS

Binder | cAMP release, % activity, 1 nM (human GLP-1 receptor) [%] | cAMP release, % activity, 10 nM (human GLP-1 receptor) [%] | cAMP release, % activity, 100 nM (human GLP-1 receptor) [%] | cAMP release, % activity, 1 µM (human GLP-1 receptor) [%] | cAMP release, % activity, 10 µM (human GLP-1 receptor) [%] | inhibition of cAMP production, 1 nM (human glucagon receptor) [pmol/ml/µg prt] | inhibition of cAMP production, 10 nM (human glucagon receptor) [pmol/ml/µg prt] | inhibition of cAMP production, 100 nM (human glucagon receptor) [pmol/ml/µg prt] | inhibition of cAMP production, 1 µM (human glucagon receptor) [pmol/ml/µg prt] | inhibition of cAMP production, 10 µM (human glucagon receptor) [pmol/ml/µg prt]
B1 | 99 | 99 | 99 | 99 | 99 | 0 | 0 | 0 | 0 | 0
B2 | 96 | 99 | 99 | 99 | 99 | 6 | 5 | 2 | 0 | 0
B3 | 99 | 99 | 99 | 99 | 99 | 9 | 6 | 5 | 3 | 0
B4 | 96 | 99 | 99 | 99 | 99 | 21 | 19 | 18 | 18 | 16
B5 | 99 | 99 | 99 | 99 | 99 | 19 | 17 | 15 | 14 | 12
B6 | 96 | 99 | 99 | 99 | 99 | 4 | 2 | 0 | 0 | 0
B7 | 39 | 80 | 86 | 95 | 98 | 0 | 0 | 0 | 0 | 0
B8 | 96 | 99 | 99 | 99 | 99 | 21 | 19 | 18 | 18 | 16
B9 | 38 | 77 | 85 | 94 | 97 | 18 | 16 | 12 | 8 | 6
B10 | 96 | 99 | 99 | 99 | 99 | 20 | 18 | 16 | 14 | 12
B11 | 39 | 80 | 86 | 95 | 98 | 0 | 0 | 0 | 0 | 0
B12 | 51 | 86 | 91 | 99 | 99 | 15 | 12 | 8 | 4 | 2
B13 | 99 | 99 | 99 | 99 | 99 | 17 | 15 | 12 | 8 | 6
B14 | 40 | 81 | 89 | 96 | 99 | 0 | 0 | 0 | 0 | 0
B15 | 38 | 78 | 86 | 95 | 98 | 22 | 21 | 20 | 18 | 18
B16 | 38 | 77 | 85 | 94 | 97 | 18 | 16 | 12 | 8 | 6
B17 | 55 | 88 | 92 | 99 | 99 | 10 | 8 | 6 | 4 | 1
